Substitutions are numbered along the chain they refer to.
B1: 14E12 (antibody, V domains shown)
VH: EVQLVESGGGLVRPGRSLRLSCAASGFTFSDYYMAWVRQAPTKGLEWVASISYDGDTTYYRDSVKGRFTISRDNARSSLYLQMDSLRSDDTANYFCTTDGTIPAGSWFAYWGQGTLVTVSS
VL: DIQMTQSPASLSASLGETVTIECLASKNIYRNLAWYQQKPGKSPQFLISDASRLQDGVPSRFTGSDSGSQYSLKINSLQSEDVATYFCQQYHDYPYTFGAGTKLELK
B2: 8B7 (antibody, V domains shown)
VH: QSVKESEGGLFKPTDNLTLTCTVSGFSLSNYGVTWVRQAPGNGLEYIGFIGSSGSAYYASWAKSRSTITRNTNLNTVTLKMTSLTAADTATYFCARDDVGGGKSLDIWGPGTLVTVSS
VL: NIVMTQTPASVEVAVGGTVTIKCQASQSIGSYLSWYQQKPGQPPKLLIYDASNLASGVPSRFKGSGSGTQFTLSISDLECADAATYYCHQDYTSNNVDNTFGGGTEVVIK
B3: 9H5 (antibody, V domains shown)
VH: B2 VH with N30S, T34S, S53G, S55F, L113V, S118V
VL: NIVMTQTPASVEAAVGGTVTINCQASQSISSYLSWYQQKSGQRPKLLIFSASTLASGVPSRFTGSGSGTQFTLTISDLQCADAATYYCHQDYTSSNVDNTFGGGTEVVVK
B4: 10C8 (antibody, V domains shown)
VH: B2 VH with N30S, T34S, S53G, S55F, K103R, L113V
VL: NIVMTQTPASVEVAMGGTVIIKCQASQSISTYLSWYQQKPGQPPKLLIYSASTLASGVSSRFEGSGSGTQFTLTISGVQCADAATYYCHQDYTSNNVDNTFGGGTEVVVK
B5: 9F2 (antibody, V domains shown)
VH: B2 VH with N30S, T34S, S53G, A56P
VL: NIVMTQTPASVEVAVGGTVIIKCQASQSISNYLSWYHQKSGQRPRLLIYSASTLASGVPSRFKGSGSGTQFTLTISDLECADAATYYCHQDYTSNSVDNTFGGGTEVVVK
B6: 8E11 (antibody, V domains shown)
VH: QEQLEESGGDLVKPEGSLTLTCTASGFSFSSSYWICWVRQAPGKGLEWIACVYGLDVNIYYASWTKGRFTISKTSSTTVTLQMTSLTAADTATYFCARGGGSADFGFDLWGPGTLVTVSS
VL: DVVMTQTASPVSAAVGGTVTIKCQASENIYSLLAWYQQKPGQPPKVLIYDASDLASGVPSRFKGSGSGTQFTLTISDLECADAATYYCQATAYGSSGNAFGGGTEVVVK
B7: 14C8 (antibody, V domains shown)
VH: EVQLVESGGGLVQPGRSLKLSCTASGFTFSDYNMAWVRQAPKGGLEWVTTISYDAGRTYYRDSVKGRFTISRDNAKRTLSLQMDSLRSEDTATYYCATGIFNYGTDYFDYWGQGVMVTVSS
VL: DIQMTQSPASLSASLGETVTIQCRASEDIYSGLAWYQQKPGKSPQLLIYGATTLHDGVPSRFSGSGSGTQYSLKISSMHSEDEGIYFCHQGLSFPYTFGAGTKLELK
B8: 12B3 (antibody, V domains shown)
VH: QSLEESGGGLVKPGGTLTLTCKASGIDFNGGGIYWVRQAPGKGLEWIASIYPDHGSVDYANWVNGRFTISLDNAQNTVFLQLTSLTVADTATYFCARESGGSYYDLWGPGTLVTVSS
VL: AYDMTQTPASVEVAVGGTVTIKCQASQSISTYLAWYQQKPGQRPNLLIYKTSTLASGVPSRFRGSGSGTQFTLTISGVECADAATYYCQQGYSGSSVENTFGGGTEVVVK
B9: 1D10 (antibody, V domains shown)
VH: B8 VH with K22T, I26F, S49Y, V57A, N61T, L82M, S99T, Y103W
VL: AYDMTQTPVSVEAAVGGTVTIKCQASQSISSYLAWYQQKPGQPPKLLIYKASTLASGVSSRFKGSGSGTEFTLTISDLECADAATYYCQQGYSGSNVENTFGGGTEVVVK
B10: 10H3 (antibody, V domains shown)
VH: QSVKESEGGLIKPTDTLTLTCTVSGFSLSTFAINWVRQAPGNGLEWIGAIGRGGSAYYASWAKSRSTITKNTNLNTVTLKMTRPTAADTATYFCARENAGSGWGELDIWGPGTLVTVSS
VL: AYEMTQTPASVEVAVGGTVTINCQASESISSDLAWYQQKPGQRPKLLIYAASTLASGVPSRFKGSGSGTEFTLSISGVQCADAATYYCQQGYTWNNVDNVFGGGTEVVVK

Tests used:
[1] = molecular target: recombinant human KLK5 (human) (UniProt Q9Y337); test: array SPR imaging (IBIS MX96), antibody amine-coupled, human KLK5 injected 0-300 nM, 25 C
recombinant human KLK5 (human), sequence (Q9Y337 67-293): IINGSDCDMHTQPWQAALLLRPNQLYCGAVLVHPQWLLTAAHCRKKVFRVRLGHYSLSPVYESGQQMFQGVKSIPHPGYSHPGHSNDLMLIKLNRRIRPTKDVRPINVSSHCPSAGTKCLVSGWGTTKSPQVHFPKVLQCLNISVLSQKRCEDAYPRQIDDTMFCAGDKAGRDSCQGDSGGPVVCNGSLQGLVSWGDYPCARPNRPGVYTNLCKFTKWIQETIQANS

[2] = molecular target: recombinant human KLK5 (human) (UniProt Q9Y337); test: cell-based or functional assay
[3] = molecular target: recombinant human KLK5 (human) (UniProt Q9Y337); test: pro-KLK7 coupled assay, 5 nM KLK5
[4] = molecular target: recombinant human KLK5 (human) (UniProt Q9Y337); test: pro-KLK7 LC/MS assay, 5 nM KLK5
[5] = molecular target: recombinant human KLK5 (human) (UniProt Q9Y337); test: Kiapp assay curve, 0.500 nM KLK5, Z-VPR-pNA
[6] = molecular target: recombinant human KLK5 (human) (UniProt Q9Y337); test: pro-KLK7 coupled assay, 5 nM KLK5, 125 nM pro-KLK7, suc-LLVY-AMC
[7] = molecular target: recombinant human KLK5 (human) (UniProt Q9Y337); test: pro-KLK7 LC/MS assay, 5 nM KLK5, 15 nM pro-KLK7, nM
[8] = molecular target: recombinant human KLK5 (human) (UniProt Q9Y337); test: direct activity assay, 5 nM KLK5, Boc-VPR-AMC
[9] = molecular target: recombinant human KLK5 (human) (UniProt Q9Y337); test: pro-KLK1 LC/MS assay, 0.5 nM KLK5
[10] = molecular target: recombinant human KLK5 (human) (UniProt Q9Y337); test: Kiapp as the y-intercept of the line of IC50 (nM) versus KLK5 (nM), Z-VPR-pNA
[11] = molecular target: recombinant human KLK5 (human) (UniProt Q9Y337); test: pro-KLK1 LC/MS assay, 0.5 nM KLK5, 300 nM pro-KLK1; box column 2 of 3; no unit printed, nM per text
[12] = molecular target: recombinant human KLK5 (human) (UniProt Q9Y337); test: KLK5 direct activity assay, 5 nM KLK5, Boc-VPR-AMC
[13] = molecular target: recombinant human KLK5 (human) (UniProt Q9Y337); test: Kiapp assay curve, 0.063 nM KLK5, Z-VPR-pNA
[14] = molecular target: recombinant human KLK5 (human) (UniProt Q9Y337); test: pro-KLK1 LC/MS assay, 0.5 nM KLK5, 300 nM pro-KLK1; box column 1 of 3; no unit printed, nM per text
[15] = molecular target: recombinant human KLK5 (human) (UniProt Q9Y337); test: pro-KLK1 LC/MS assay, 0.5 nM KLK5, 300 nM pro-KLK1; box column 3 of 3; no unit printed, nM per text
[16] = molecular target: recombinant human KLK5 (human) (UniProt Q9Y337); test: Kiapp assay curve, 0.250 nM KLK5, Z-VPR-pNA
[17] = molecular target: recombinant human KLK5 (human) (UniProt Q9Y337); test: Kiapp, KLK5 0.5-0.0625 nM, Z-VPR-pNA
[18] = molecular target: recombinant human KLK5 (human) (UniProt Q9Y337); test: pro-KLK1 coupled assay, 0.5 nM KLK5
[19] = molecular target: recombinant human KLK5 (human) (UniProt Q9Y337); test: pro-KLK1 coupled assay, 0.5 nM KLK5, 31.25 nM pro-KLK1, PFR-AMC
[20] = molecular target: recombinant human KLK5 (human) (UniProt Q9Y337); test: Kiapp assay curve, 0.125 nM KLK5, Z-VPR-pNA
[21] = molecular target: recombinant human KLK5 (human) (UniProt Q9Y337); test: SPR BIAcore T200, antibody captured by anti-human Fc, human KLK5 as analyte, 37 C
[22] = molecular target: recombinant human KLK5 (human), Q9Y337; test: cell-based or functional assay
recombinant human KLK5 (human), Q9Y337, sequence (Q9Y337 67-293): as above

Binder	koff [1]	inhibition of human KLK5 (screening) [2]	IC50 [3]	IC50 [4]	IC50 (read off the curve) [5]	IC50 (read off the curve) [6]	IC50 [7]	IC50 [8]	IC50 [9]	Ki [10]	IC50 [11]	IC50 (read off the curve) [12]	IC50 (read off the curve) [13]	IC50 [14]	IC50 [15]	IC50 (read off the curve) [16]	Ki [17]	IC50 [18]	IC50 (read off the curve) [19]	IC50 (read off the curve) [20]	also measured
B1	0.000414 s⁻¹	< 90%																			
B2	0.000547 s⁻¹		0.92 nM	1.29 nM	0.2 nM	1 nM	1.29 nM	1.1 nM	0.09 nM	0.264 nM	0.132 nM	1 to 2 nM	0.2 nM	0.0473 nM	0.106 nM	0.2 nM	0.32 nM	0.125 nM	0.1 nM	0.2 nM	
B3	0.000367 s⁻¹		0.87 nM	1.68 nM	0.3 nM	0.8 nM	1.68 nM	1.08 nM	0.19 nM	0.402 nM	0.343 nM	0.8 nM	0.2 nM	0.138 nM	0.102 nM	0.2 nM	0.425 nM	0.139 nM	0.1 to 0.2 nM	0.2 nM	Kd [21]: 0.193 nM; koff [21]: 0.000137 s⁻¹; kon [21]: 705000 M⁻¹ s⁻¹
B4	6.16e-05 s⁻¹		1.16 nM	1.8 nM	0.2 nM	1 nM	1.8 nM	0.89 nM	0.14 nM	0.277 nM	0.225 nM	0.9 nM	0.2 nM	0.0587 nM	0.149 nM	0.2 nM	0.265 nM	0.151 nM	0.1 to 0.2 nM	0.2 nM	
B5	0.000339 s⁻¹		0.93 nM	1.26 nM	0.3 nM	0.9 nM	1.26 nM	1.01 nM	0.14 nM	0.377 nM	0.137 nM	1 to 2 nM	0.2 nM	0.108 nM	0.18 nM	0.2 nM	0.43 nM	0.137 nM	0.1 to 0.2 nM	0.2 nM	
B6	0.000202 s⁻¹	< 90%																			
B7	0.000376 s⁻¹	< 90%																			
B8																					inhibition of human KLK5 (screening) [22]: < 50%
B9																					inhibition of human KLK5 (screening) [22]: < 50%
B10	0.000589 s⁻¹		1.17 nM	0.97 nM	0.4 nM	1 nM	0.968 nM	1.09 nM	0.08 nM	0.393 nM	0.116 nM	1 nM	0.2 nM	0.00485 nM	0.13 nM	0.3 nM	0.51 nM	0.122 nM	0.1 nM	0.3 nM	

From patent publication US20200040103A1
